Laboratory results reported in US20190194660, “INHIBITORS OF SRSF1 TO TREAT NEURODEGENERATIVE DISORDERS” (University of Sheffield, published 2019).

T1: SRSF1-m4 (11-196 quadruple Arg to Ala mutant) (Homo sapiens, UniProt Q07955 SEQ:2-187)
T1 chain: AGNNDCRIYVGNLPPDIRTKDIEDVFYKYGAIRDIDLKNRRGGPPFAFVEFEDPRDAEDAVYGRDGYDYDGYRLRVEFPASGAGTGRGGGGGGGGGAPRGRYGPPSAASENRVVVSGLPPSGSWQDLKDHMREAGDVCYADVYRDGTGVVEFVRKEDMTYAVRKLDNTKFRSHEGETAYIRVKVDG


Columns and labels:
[1] = target: MAGOH (UniProt P61326 P61326:1-146); experiment: UV crosslinking; negative control protein; conditions: tags: hexa-histidine, E. coli BL21(DE3)-RP; label: 5'-32P
From the text: (§1) (A,B) Protein:RNA UV crosslinking assays using purified recombinant proteins and 32P-end-radiolabeled G4C2×5 (A) and C4G2×5 (B) repeat RNA probes. Proteins are visualised on SDS-PAGE stained with Coomassie blue (left panels) and covalently linked RNA:protein complexes by autoradiography on Phospholmages (Right panels). UV exposure is indicated by +. […] Nuclei are stained in blue by DAPI. Scale bar: 3 μm;
(§2) We performed in vitro UV-crosslinking assays using purified recombinant proteins and synthetic G4C2×5 and C4G2×5 RNA probes to investigate direct protein:RNA interactions. […] Purified proteins were incubated with 5′-end 32P-radiolabelled G4C2×5 (FIG. 20a) or C4G2×5 (FIG. 20b) RNA probes prior to irradiation with UV where indicated (+) and resolved by SDS-PAGE.

[2] = target: SRSF1 (11-196) (Homo sapiens, UniProt Q07955 SEQ:11-196); experiment: UV crosslinking; no signal without UV; conditions: tags: hexa-histidine, E. coli BL21(DE3)-RP; label: 5'-32P
From the text: as §1, §2

[3] = target: T1, SRSF1-m4 (11-196 quadruple Arg to Ala …); experiment: UV crosslinking; mutant position printed R93,94,117,118A in text, R90,93,117,118A in FIG. 13; conditions: tags: hexa-histidine, E. coli BL21(DE3)-RP; label: 5'-32P
From the text: (§3) Histone H3 is used to check for potential nuclear contamination. (g) Cytoplasmic and total G4C2-repeat sense transcript levels were normalized to Tub84b levels in G4C2×36+Ctrl-RNAi or G4C2×36+SRSF1⁷⁶-RNAi Drosophila in triplicate experiments prior to plotting as a ratio to account for potential changes in mRNA transcription/stability (mean±SEM; paired t-test; N (qRT-PCR reactions)=3).
(§4) N2A cells were transfected with FLAG control, FLAG-tagged SRSF1 or FLAG-tagged SRSF1-m4 and various lengths of sense or antisense repeat transcript constructs prior to fixing of ribonucleoprotein complexes. Cell extracts were then subjected to anti-FLAG immunoprecipitation under the same conditions used in the co-immunoprecipitation of NXF1 (FIG. 6g) prior to the qRT-PCR analysis of SRSF1-crosslinked RNA molecules.

[4] = target: ALYREF (Homo sapiens, UniProt Q86V81 Q86V81:1-257); experiment: UV crosslinking
[5] = target: T1, SRSF1-m4 (11-196 quadruple Arg to Ala …); experiment: UV crosslinking; conditions: tags: hexa-histidine, E. coli BL21(DE3)-RP; label: 5'-32P
From the text: as §3, §4

MAGOH, sequence (P61326 whole entry, one chain of several): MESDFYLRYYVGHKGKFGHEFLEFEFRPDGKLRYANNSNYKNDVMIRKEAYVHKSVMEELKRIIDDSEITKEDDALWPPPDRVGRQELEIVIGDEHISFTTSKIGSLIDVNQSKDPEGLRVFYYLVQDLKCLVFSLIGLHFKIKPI

Row | Binder | binding result [1] | binding result [2] | binding result [3] | binding result [4] | binding result [5]
1 | GGGGCCGGGGCCGGGGCCGGGGCCGGGGCC (ssRNA) [G4C2x5 RNA] | no binding | binds | binds | binds | –
2 | CCCCGGCCCCGGCCCCGGCCCCGGCCCCGG (ssRNA) [C4G2x5 RNA] | no binding | binds | – | binds | binds
